The data set is described as follows: amyloid nucleation score (Sup35N fusion, yeast selection) (log enrichment); library NNK2; higher = more nucleation; inactive = no reads after selection. Put shortly: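 After 24 hours of induction with 100 μM copper sulfate, psi-negative yeast expressing peptides of 20 random codons fused to Sup35N were grown for 7 days at 30°C on medium lacking adenine and uracil. Input and output plasmid inserts were sequenced with Illumina, and sequences with under 100 input reads were discarded. Scores for nucleation are the DiMSum log enrichment of output over input reads, centred on the mode score of non-aggregating sequences.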

± gives the uncertainty stated by the source.

As for QSNSSRLHSCRGAIVICI, the amyloid nucleation score turned out to be 6.751 ± 0.066. As to LAYIARR, the amyloid nucleation score is -0.035 ± 0.76. The substance LTSSSSSQVWGLYVYDGHLK gave an amyloid nucleation score of -0.045 ± 0.38. For the substance SLLRLIFMLRRGDIHGYCRG, the amyloid nucleation score is 5.84 ± 0.084.

Take VTRKVLGYCRVW: the amyloid nucleation score came out at 0.472 ± 0.8. Take YVDWVNRTFQWFTGDVDDPV: the amyloid nucleation score was -0.107 ± 0.39. Take TTPLTRRFRRFHVW: the amyloid nucleation score was found to be 1.02 ± 0.26. Regarding KWITVYETVNCMSGWFIQDL, the amyloid nucleation score was found to be 6.622 ± 0.033. Take VYYTCYDE: the amyloid nucleation score stood at 0.024 ± 0.4. As for KDGSFSPISL, the amyloid nucleation score was -0.116 ± 0.35. On to RILYMMDFSFGANSIYFYWN, for which the amyloid nucleation score came out at 4.4 ± 0.065. For MVIWFPLEIMIRIRSPL, the amyloid nucleation score is -0.766 ± 0.48.

TCVQLKNAIFQVSWYILLQG had an amyloid nucleation score of -0.322 ± 0.65.

In the case of SLSGRLMNFYIMQNSIPTWW, the amyloid nucleation score came to 6.792 ± 0.041.

Substance IIQRRK came in with an amyloid nucleation score of -0.157 ± 0.27. On to MTNSLCSTCIMFYSMCMNST, for which the amyloid nucleation score came to 7.79 ± 0.08. SLSQMRLSVLSNKDHSIEL registered an amyloid nucleation score of 7.964 ± 0.056. As for FCRETLRTRKAETLGTVNKE, the figure is -0.937 ± 0.78. On to VLLKLVDLWL, for which the amyloid nucleation score was -0.017 ± 0.54. Consider LCCGSLDIYWFVFFF, for which the amyloid nucleation score came to 1.63 ± 0.25. As to SSSVSRPRCFFRSWFYIHVR, the amyloid nucleation score is -1.21 ± 0.49. With ELLGSLCRNRVGTWTICNMS, the amyloid nucleation score is 0.52 ± 0.34. For the substance VAWMFMASFRSLSMMVSISR, the amyloid nucleation score worked out at 0.01 ± 0.37. In the case of MRSFCFSVQNIQVTYHVGLA, the amyloid nucleation score worked out at 3.94 ± 0.1.

Substance ESLGEVKGYTSDPMVLVCFE came in with an amyloid nucleation score of -0.167 ± 0.23. SDMDYLWLCIVRTVLNVIYR registered an amyloid nucleation score of -1.17 ± 1.1.

Consider VVEVCC, for which the amyloid nucleation score was -0.368 ± 0.27. Then PHSLVLSGWHNLDAFFNATL, with “inactive”; and VMPGSLCLVRVFFCIMHVLY, with “inactive”. Substance AVQVLYRGTFLLPFWRVANV registered an amyloid nucleation score of -0.487 ± 1.1. ASGNRTFVVMLLNRRKMMST: the amyloid nucleation score came to 0.008 ± 0.48. As for IRCCAWFDLVSESRSRGTWT, the figure is 5.43 ± 0.072. GYRNPLLLILLDRVKFSCSR: the amyloid nucleation score was -1.19 ± 1. QSSTYLSPRLHTISDIPYNF had an amyloid nucleation score of -0.781 ± 0.38.

LLFPLGISHAYMGRFFFRMV displayed an amyloid nucleation score of -0.266 ± 1.1. For the substance KVARGVCYCRFSL, the amyloid nucleation score entry is “inactive”. QKGYN: the amyloid nucleation score entry was “inactive”. WYISARPYVFCYDMQRSLRL came in with an amyloid nucleation score of -0.505 ± 1.1.

With IVWSNMTIQQSTSSVY, the amyloid nucleation score was -0.25 ± 0.25. As to FNDRHVCHREKFSRELGFCS, the amyloid nucleation score was -0.479 ± 1.

The substance KLLFLLVVVLADQMSCLGTS had an amyloid nucleation score of 1.1 ± 0.36. As for NAEFIPGYMISVWTSIATIT, the amyloid nucleation score was determined as 0.359 ± 0.42. Substance CDMPLKLWTLAVLPLDVPYR returned an amyloid nucleation score of 0.179 ± 0.49. As for CEISFVFIWILIVFNNVDPD, the amyloid nucleation score result was “inactive”. On to THPEFSIPIGRHHYGG, for which the amyloid nucleation score is -0.836 ± 0.29. YFGVEKDEFPPLLGMHMF: the amyloid nucleation score is -1.59 ± 0.75. As for DSLFIACVSLF, the amyloid nucleation score is -0.26 ± 0.63. The substance RHHYHSYGSTLVKVRAGQRC had an amyloid nucleation score of 4.88 ± 0.077. For NNNKI, the amyloid nucleation score result was “inactive”. Consider NKTTFSICDAYDGYREWTDN, for which the amyloid nucleation score is -1.17 ± 0.45.

TDCFQFS had an amyloid nucleation score of 0.713 ± 0.58. Turning to QEVSIKSFLRKYLLCYTMML, the amyloid nucleation score was -1.05 ± 0.44. LSLYWVMSLKSQAP had an amyloid nucleation score of 0.354 ± 0.64.

Turning to FYFDGQLV, the amyloid nucleation score is -0.743 ± 0.76. In turn, LTACRVLRLLKCSQRE displayed an amyloid nucleation score of 4.68 ± 0.075. On to HVLYDCMGVIIKSCHYLDLC, for which the amyloid nucleation score is -0.508 ± 0.37.

As to TPPWQGSDWCGNHCNWQGPM, the amyloid nucleation score is 0.247 ± 0.8. As to VIRVESCPVYFYLTTRTAGS, the amyloid nucleation score was 0.633 ± 0.8.

Take SMVVGMGSCPNVTRGAGLKR: the amyloid nucleation score was 1.06 ± 0.17. Then YAFIILISCFLTDDSTIGVY, with -0.24 ± 0.55. FWVKVNMSLGMSNLFVYACL: the amyloid nucleation score was found to be 6.298 ± 0.024. SDICTLAEQSGASIRDRLTL displayed an amyloid nucleation score of -0.284 ± 1.1. Consider CLLNVTEAFTGGSMIGWHFR, for which the amyloid nucleation score came to 5.393 ± 0.049.

As for CTSYTEDFLWCFHNVTWKVR, the amyloid nucleation score worked out at 0.105 ± 0.8. Take FCKSVHKVHGHNVWCTLCAG: the amyloid nucleation score was determined as 1.11 ± 0.18. FASRSCEFCEREY had an amyloid nucleation score of 3.2 ± 0.085. In the case of SYGFFMVWIEGYFLVMASRI, the amyloid nucleation score result was “inactive”. Regarding MVSMFNGYAVLHCPLCIITR, the amyloid nucleation score was found to be 7.11 ± 0.047. In turn, ISRGRRYRTPVEILGGHMRH came in with an amyloid nucleation score of 0.917 ± 0.53. The substance LCCRCIKVIAALKLNIENHQ registered an amyloid nucleation score of 3.65 ± 0.095. As for AIRCMEVKRTKSLLLVDSLS, the figure is 0.154 ± 0.23; as for AYLPHAHTT, -0.154 ± 0.33.

As to VGGSDSLNFIAIGKTFCVQV, the amyloid nucleation score was 0.186 ± 0.27. As for TPDGIRLSVAHCS, the figure is 0.764 ± 0.24; as for RFIRSWNFCDRD, “inactive”; as for RHVCYGGQYLVANHSGM, -0.267 ± 0.65. Take TYPAHFVWLCNCCVDKYSLS: the amyloid nucleation score came to 2.79 ± 0.069. The substance SVFCCLYLYSG came in with an amyloid nucleation score of 9.035 ± 0.023. Turning to RAWSIAWYAYPFLIREFECN, the amyloid nucleation score was determined as 3.35 ± 0.079. Turning to DRFVWVADTWWSRRNNAAFG, the amyloid nucleation score worked out at 4.16 ± 0.054. The substance KCVRKCYDIYGLLSCCGRLA registered an amyloid nucleation score of 8.844 ± 0.039. As to NNYATCNVHCMFMMI, the amyloid nucleation score came to 10.18 ± 0.05. In turn, FCSHVGLVYCTYIMMRVSMR had an amyloid nucleation score of 5.501 ± 0.034. SWKWYRS: the amyloid nucleation score turned out to be 0.157 ± 1. In turn, GLTSFMLDVLRGETAHRGEG returned an amyloid nucleation score of 0.972 ± 0.52. PEKTFICCLAVRDMQNRGVS had an amyloid nucleation score of -0.032 ± 1.1. As for AWRKRH, the amyloid nucleation score came to 0.746 ± 0.18. In turn, YRARKASLTDVSSSVKVNMS came in with an amyloid nucleation score of -0.026 ± 0.63. Then RLSCKED, with 0.108 ± 0.61; and RSVWNASAFVAIFFRVRSQA, with 0.547 ± 0.36. Turning to WLIGRNAKSWAWVFLKRSTG, the amyloid nucleation score is 0.392 ± 0.25.

For the substance IPKKSNLFLQMETMQLLFFD, the amyloid nucleation score stood at 2.67 ± 0.17.

Substance NISFADSCMNFIRYY displayed an amyloid nucleation score of 2.4 ± 0.12. In the case of HKQRSSASKSV, the amyloid nucleation score was -0.321 ± 0.39. TVAVRSPIT yielded an amyloid nucleation score of -0.686 ± 0.44. As for VRIKCYVKPYFFQKFLHMIG, the figure is -1.34 ± 0.53. As for NHSTVYLLMEISTGLVISGN, the figure is 1.99 ± 0.16; as for VCVLYLTSTGFLGQLY, 2.74 ± 0.14; as for INSASESKGKGIILSTNGDS, -0.717 ± 0.39. Then FVYGQWPNRSRAISSTSMFK, with -0.723 ± 0.36; and WVGGYIQLFYVTRPQVSGRP, with 3.17 ± 0.061. For the substance RYFSISAFMVMGTVNVGGYW, the amyloid nucleation score was found to be 4.18 ± 0.045.

Values taken from the supplement of paper PMC12042874.
